Measurements from publication PMC5739345, “Identification of iridoid synthases from Nepeta species: Iridoid cyclization does not determine nepetalactone stereochemistry” (Phytochemistry, 2018).

Assays:
purified protein [1] = substrate: NC(=O)C1=CN([C@@H]2O[C@H](COP(=O)(O)OP(=O)(O)OC[C@H]3O[C@@H](n4cnc5c(N)ncnc54)[C@H](OP(=O)(O)O)[C@@H]3O)[C@@H](O)[C@H]2O)C=CC1; assay: purified protein; type: biochemical, Nepeta racemosa; conditions: 50 μM 8-oxogeranial, 200 mM MOPS pH 7.0, 100 mM NaCl, 1-1.4% THF, 25 °C, 5 nM enzyme, varied: cofactor
purified protein [2] = substrate: C/C(C=O)=C\CC/C(C)=C/C=O; assay: purified protein; type: biochemical, Nepeta racemosa; conditions: 75 μM NADPH, 200 mM MOPS pH 7.0, 100 mM NaCl, 1-1.4% THF, 25 °C, 5 nM enzyme

B1: NmISY2 (Nepeta racemosa) (protein)
chain: MSLSWWRAGAAKKRMDDDESLLVKQQQQQCVALIVGVTGLVGNSLAEMLPLPDTPGGPWKVYGVARRARPSWNEDQPMTYISCDVSNTGEVEAKLSPLSDVTHIFYATWTSRSTEEENCEANGKMLKNVLDAMIPNCPNLKHICLQTGRFHYVASVVDWKINGSHDTPLTEDLPRLKTNNFYYTQEDILLEEVKRKEGLTWSVHRPGTIFGFSPYSMMNLVGTLCVYAAICKQEGAVLRFPGCKGAWDGHSDCADADLIAEQQIWAALDPHAKNQAFNVSNGDLFKWKHLWKVLADQFGVECGDYEEGQQLRLQDVMKDKGPVWDKIVAENGLSNTKLEDVGKWWFSDTILWNECRLDSMNKSKEHGFLGFRNSKNCFLYWIHKVKAYNLVPSTYT
notes: N-terminal His-tag (pOPINF), E. coli soluBL21 (DE3), Ni-NTA and gel filtration; not fully homogeneous; dimer fraction; Phe at Lys146, Ala at Gly150 positions (natural)
B1 gave a Km (purified protein [1]) of 26.2 ± 5.1 µM, a kcat (purified protein [1]) of 0.84 ± 0.06 s⁻¹ and a Km (purified protein [2]) of 7.3 ± 0.7 µM. The kcat (purified protein [2]) was 0.60 ± 0.02 s⁻¹.
